Results from publication PMC11999606, “Dynein light chains 1 and 2 are auxiliary proteins of pH-sensitive Kir4.1 channels” (The Journal of Biological Chemistry, 2025).

B1: full-length Kir4.1 protein with the ΔTQT deletion (natural protein, UniProt P78508 1-379, looked up)
chain: MTSVAKVYYSQTESRPLMGPGIRRRRVLTKDGRSNVRMEHIADKRFLYLKDLWTTFIDMQWRYKLLLFSATFAGTWFLFGVVWYLVAVAHGDLLELDPPANHTPCVVQVHTLTGAFLFSLESQTTIGYGFRYISEECPLAIVLLIAQLVLTTILEIFITGTFLAKIARPKKRAETIRFSQHAVVASHNGKPCLMIRVANMRKSLLIGCQVTGKLLQTHQTKEGENIRLNQVNVTFQVDTASDSPFLILPLTFYHVVDETSPLKDLPLRSGEGDFELVLILSGTVESTSATCQVRTSYLPEEILWGYEFTPAISLSASGKYIADFSLFDQVVKVASPSGLRDSTVRYGDPEKLKLEESLREQAEKEGSALSVRISNV
notes: Kir4.1 (KCNJ10), full length, with the three TQT residues (13-15) deleted; also called Kir4.1-ΔTQT; not shown: GFP, N-terminal, kept
B2: N-terminal FLAG-GFP-tagged full-length Kir4.1 (natural protein, UniProt P78508 1-379, looked up)
chain: MTSVAKVYYSQTTQTESRPLMGPGIRRRRVLTKDGRSNVRMEHIADKRFLYLKDLWTTFIDMQWRYKLLLFSATFAGTWFLFGVVWYLVAVAHGDLLELDPPANHTPCVVQVHTLTGAFLFSLESQTTIGYGFRYISEECPLAIVLLIAQLVLTTILEIFITGTFLAKIARPKKRAETIRFSQHAVVASHNGKPCLMIRVANMRKSLLIGCQVTGKLLQTHQTKEGENIRLNQVNVTFQVDTASDSPFLILPLTFYHVVDETSPLKDLPLRSGEGDFELVLILSGTVESTSATCQVRTSYLPEEILWGYEFTPAISLSASGKYIADFSLFDQVVKVASPSGLRDSTVRYGDPEKLKLEESLREQAEKEGSALSVRISNV
notes: Kir4.1 (KCNJ10), full length; also called F-GFP-Kir4.1; Kir4.1-WT; source: in detergent-solubilized membrane fraction, and purified; not shown: FLAG, N-terminal, kept; GFP, N-terminal, kept
B3: full-length Kir4.1, N-terminal tags cleaved off (natural protein, UniProt P78508 1-379, looked up)
chain: B2 chain
notes: Kir4.1 (KCNJ10) inwardly rectifying potassium channel, full length; Purified as a tetramer that carries copurified endogenous LC8; also called KCNJ10; Kir4.1 WT; source: purified (FLAG resin, eluted by HRV 3C cleavage, Superose 6 SEC); not shown: FLAG, N-terminal, cleaved; GFP, N-terminal, cleaved

Target: the molecule itself
Experiment: SEC; purified Kir4.1 proteins on a Superose 6 column in glyco-diosgenin-containing buffer; pH 8.0 and pH 6.0 for the WT without tags; tetramer peak

Stoichiometry N, 4:
B1
B2
B3
